Sequences and labels used below:
B1: Serine/threonine-protein phosphatase 5 (Homo sapiens), P53041 (parent)
chain: MAMAEGERTECAEPPRDEPPADGALKRAEELKTQANDYFKAKDYENAIKFYSQAIELNPSNAIYYGNRSLAYLRTECYGYALGDATRAIELDKKYIKGYYRRAASNMALGKFRAALRDYETVVKVKPHDKDAKMKYQECNKIVKQKAFERAIAGDEHKRSVVDSLDIESMTIEDEYSGPKLEDGKVTISFMKELMQWYKDQKKLHRKCAYQILVQVKEVLSKLSTLVETTLKETEKITVCGDTHGQFYDLLNIFELNGLPSETNPYIFNGDFVDRGSFSVEVILTLFGFKLLYPDHFHLLRGNHETDNMNQIYGFEGEVKAKYTAQMYELFSEVFEWLPLAQCINGKVLIMHGGLFSEDGVTLDDIRKIERNRQPPDSGPMCDLLWSDPQPQNGRSISKRGVSCQFGPDVTKAFLEENNLDYIIRSHEVKAEGYEVAHGGRCVTVFSAPNYCDQMGNKASYIHLQGSDLRPQFHQFTAVPHPNVKPMAYANTLLQLGMM

The variants in the assay derive from B1. The settings on record: with hs90b_human HSP90AB1, P08238.
hs90b_human HSP90AB1, P08238, sequence (P08238 whole entry): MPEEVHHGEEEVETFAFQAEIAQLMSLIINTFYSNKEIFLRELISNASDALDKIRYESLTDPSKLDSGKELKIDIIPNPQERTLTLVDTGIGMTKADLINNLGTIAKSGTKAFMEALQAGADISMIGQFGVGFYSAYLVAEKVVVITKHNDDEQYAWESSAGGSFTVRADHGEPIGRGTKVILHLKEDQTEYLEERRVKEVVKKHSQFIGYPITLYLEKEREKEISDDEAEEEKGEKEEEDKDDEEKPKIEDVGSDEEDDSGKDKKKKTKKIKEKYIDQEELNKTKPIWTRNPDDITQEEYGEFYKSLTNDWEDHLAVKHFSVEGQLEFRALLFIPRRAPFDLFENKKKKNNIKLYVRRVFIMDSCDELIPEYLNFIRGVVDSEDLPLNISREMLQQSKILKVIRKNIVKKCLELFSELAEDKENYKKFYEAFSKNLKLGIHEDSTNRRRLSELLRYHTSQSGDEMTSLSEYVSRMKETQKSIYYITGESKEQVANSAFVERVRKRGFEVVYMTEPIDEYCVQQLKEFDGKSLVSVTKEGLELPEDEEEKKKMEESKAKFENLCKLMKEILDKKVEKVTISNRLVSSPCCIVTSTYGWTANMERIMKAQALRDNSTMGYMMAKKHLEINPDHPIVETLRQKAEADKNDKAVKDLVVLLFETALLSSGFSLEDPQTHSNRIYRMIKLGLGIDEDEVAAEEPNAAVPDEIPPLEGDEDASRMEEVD
For the variant G83N, the “effect of a mutation on the interaction” value was “increasing interaction”.

The values above are taken from IntAct's records for PubMed 16531226.
